Here are results for two proteins from patent US20060014193A1, “Nucleoside phosphoramidates and nucleoside phosphoramidases” (priority 2004, published 2006).

Substrate in series [1]: NCCc1c[nH]c2ccccc12
The series can be described thus: Phosphoramidase fluorescence assay. It is filed as biochemical, human. Particulars: other: Table 5; pH 7.2; 25.0 °C. Here is the method:
The fluorescence of tryptophan (ex, 280 nm, em 360 nm) can be quenched when covalently attached to a nucleoside monophosphate, and nucleoside phosphoramidates of D- and L-tryptophan and tryptamine are excellent fluorescent substrates for hHINT1. Typically, after measurement of initial substrate fluorescence, hHINT1 was added to the reaction solution (HEPES buffer, pH 7.2, 25° C.) and the change in fluorescence over 2 min was determined by converting the slope into μM of substrate hydrolyzed per μg of enzyme per min with a standard curve. […] Based on the generation of chimeric polypeptides between the hHINTI and the hinT of E. coli, the preference for D enantiomers by the human HINT1 polypeptide is likely conferred by the C-terminus amino acids (e.g., the C-terminus 5, 6, 5 7, 8, 9, 10, or 11 amino acids) of the hHINT1 enzyme. […] In addition, both D-tryptophan phosphoramidates of cytosine and uridine were substrates. Initial rates were determined 10 during the first 10-20% of the reaction for variable substrate concentrations. The Michaelis-Menten constants, kcat and Km, for selected nucleoside phosphosphoramidates have been determined. (Table 4). As observed in the initial screening assay, for phosphoramidates containing L-tryptophan, hHINT1 has a 7-fold greater preference for AMP phosphoramidates of L-tryptophan than GMP.

Substrate in series [2]: NCCc1c[nH]c2ccccc12
The series can be described thus: Phosphoramidase fluorescence assay. Type of series: biochemical, E. coli. Particulars: other: Table 5; pH 7.2; 25.0 °C.

B1: hHINT1 (Homo sapiens) (protein)
chain: MADEIAKAQVARPGGDTIFGKIIRKEIPAKIIFEDDRCLAFHDISPQAPTHFLVIPKKHISQISVAEDDDESLLGHLMIVGKKCAADLGLNKGYRMVVNEGSDGGQSVYHVHLHVLGGRQMHWPPG
On to B1, for which, in series [1], the Km stood at 1.74 ± 0.22 µM, the kcat was found to be 0.97 ± 0.11 s⁻¹ and the kcat/Km turned out to be 558000 M⁻¹ s⁻¹.

B2: E. coli hinT (Escherichia coli K-12) (protein)
chain: MAEETIFSKIIRREIPSDIVYQDDLVTAFRDISPQAPTHILIIPNILIPTVNDVSAEHEQALGRMITVAAKIAEQEGIAEDGYRLIMNTNRHGGQEVYHIHMHLLGGRPLGPMLAHKGL
Regarding B2, in series [2], the Km was 30.1 ± 2.39 µM, the kcat was 0.45 ± 0.04 s⁻¹ and the kcat/Km turned out to be 15000 M⁻¹ s⁻¹.
